Measurements reported in article PMC10797690, “The SIRT3-ATAD3A axis regulates MAM dynamics and mitochondrial calcium homeostasis in cardiac hypertrophy” (International Journal of Biological Sciences, 2024).

Target: T1, NAD+-dependent deacetylase Sirtuin 3 (SIRT3), protein used for SPR
T1 chain: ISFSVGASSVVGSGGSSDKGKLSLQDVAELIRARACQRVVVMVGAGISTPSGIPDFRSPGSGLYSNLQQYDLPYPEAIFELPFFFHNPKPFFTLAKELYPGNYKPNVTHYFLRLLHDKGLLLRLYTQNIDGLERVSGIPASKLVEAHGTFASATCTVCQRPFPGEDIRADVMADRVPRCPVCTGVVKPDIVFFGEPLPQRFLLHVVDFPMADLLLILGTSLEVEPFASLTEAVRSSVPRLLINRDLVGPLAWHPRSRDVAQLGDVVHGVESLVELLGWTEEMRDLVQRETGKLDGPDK
Assay: SPR; multicycle kinetics; which protein was immobilised is not told
Conditions: both partners purified

B1: ATPase family AAA-domain containing protein 3A (ATAD3A), protein used for SPR (natural protein)
chain: SWLFGINKGPKGEGAGPPPPLPPAQPGAEGGGDRGLGDRPAPKDKWSNFDPTGLERAAKAARELEHSRYAKDALNLAQMQEQTLQLEQQSKLKEYEAAVEQLKSEQIRAQAEERRKTLSEETRQHQARAQYQDKLARQRYEDQLKQQQLLNEENLRKQEESVQKQEAMRRATVEREMELRHKNEMLRVEAEARARAKAERENADIIREQIRLKAAEHRQTVLESIRTAGTLFGEGFRAFVTDWDKVTATVAGLTLLAVGVYSAKNATLVAGRFIEARLGKPSLVRETSRITVLEALRHPIQVSRRLLSRPQDALEGVVLSPSLEARVRDIAIATRNTKKNRSLYRNILMYGPPGTGKTLFAKKLALHSGMDYAIMTGGDVAPMGREGVTAMHKLFDWANTSRRGLLLFVDEADAFLRKRATEKISEDLRATLNAFLYRTGQHSNKFMLVLASNQPEQFDWAINDRINEMVHFDLPGQEERERLVRMYFDKYVLKPATEGKQRLKLAQFDYGRKCSEVARLTEGMSGREIAQLAVSWQATAYASEDGVLTEAMMDTRVQDAVQQHQQKMCWLKAEGPGRGDEPSPS
Question: For B1, which Kd is on record?
Answer: 50.9 nM
